The Immune Epitope Database (IEDB)

Legend:
HLA-B*27:05 = assay: IEDB peptide-MHC binding, purified MHC/direct/fluorescence; filed as Kd, often an IC50 or EC50 that approximates it; ≥ and ≤ were set here for values at or beyond the usual limits of such assays
HLA-A*02:01 [1] = assay: as above
HLA-A*03:01 [2] = assay: as above
HLA-A*69:01 [3] = assay: as above
HLA-A*29:02 [4] = assay: as above
HLA-B*44:02 = assay: as above
HLA-A*01:01 [5] = assay: as above
HLA-B*46:01 [6] = assay: as above
HLA-B*39:01 [7] = assay: as above
HLA-A*31:01 = assay: as above
HLA-B*57:01 [8] = assay: as above
HLA-B*18:01 [9] = assay: as above; conditions: source organism: Mycobacterium tuberculosis
HLA-B*15:01 = assay: as above
HLA-A*11:01 = assay: as above
HLA-A*30:01 = assay: IEDB peptide-MHC binding, purified MHC/competitive/fluorescence; filed as Kd, often an IC50 or EC50 that approximates it; ≥ and ≤ were set here for values at or beyond the usual limits of such assays; conditions: source organism: Human immunodeficiency virus 1
HLA-A*02:03 [10] = assay: as above; conditions: source organism: Human immunodeficiency virus 1
HLA-B*39:01 [11] = assay: as above
HLA-A*26:01 [12] = assay: as above
HLA-B*27:03 = assay: as above
HLA-B*18:01 [13] = assay: as above
HLA-B*58:01 [14] = assay: IEDB peptide-MHC binding, purified MHC/direct/fluorescence; filed as Kd, often an IC50 or EC50 that approximates it; ≥ and ≤ were set here for values at or beyond the usual limits of such assays
HLA-B*07:02 = assay: as above
HLA-B*58:01 [15] = assay: IEDB peptide-MHC binding, purified MHC/competitive/radioactivity; filed as Kd, often an IC50 or EC50 that approximates it; ≥ and ≤ were set here for values at or beyond the usual limits of such assays
HLA-B*15:09 = assay: IEDB peptide-MHC binding, purified MHC/direct/fluorescence; filed as Kd, often an IC50 or EC50 that approximates it; ≥ and ≤ were set here for values at or beyond the usual limits of such assays
HLA-B*08:01 = assay: as above; conditions: source organism: Influenza A virus (A/camel/Mongolia/1982(H1N1))
HLA-B*40:01 = assay: as above; conditions: source organism: Influenza A virus (A/camel/Mongolia/1982(H1N1))
HLA-B*57:01 [16] = assay: IEDB peptide-MHC binding, purified MHC/competitive/radioactivity; filed as Kd, often an IC50 or EC50 that approximates it; ≥ and ≤ were set here for values at or beyond the usual limits of such assays
HLA-A*02:01 [17] = assay: IEDB peptide-MHC binding, purified MHC/competitive/fluorescence; filed as Kd, often an IC50 or EC50 that approximates it; ≥ and ≤ were set here for values at or beyond the usual limits of such assays; conditions: source organism: Bos taurus
HLA-A*24:03 = assay: as above; conditions: source organism: Bos taurus
HLA-A*03:01 [18] = assay: as above; conditions: source organism: Bos taurus
HLA-A*69:01 [19] = assay: as above; conditions: source organism: Bos taurus
HLA-B*15:17 = assay: as above
HLA-A*29:02 [20] = assay: as above; conditions: source organism: Bos taurus
HLA-A*68:02 [21] = assay: as above; conditions: source organism: Bos taurus
HLA-B*46:01 [22] = assay: as above
HLA-B*57:01 [23] = assay: as above
HLA-B*51:01 = assay: as above
HLA-A*26:01 [24] = assay: IEDB peptide-MHC binding, purified MHC/direct/fluorescence; filed as Kd, often an IC50 or EC50 that approximates it; ≥ and ≤ were set here for values at or beyond the usual limits of such assays; conditions: source organism: Orthohantavirus negraense
HLA-A*02:03 [25] = assay: as above; conditions: source organism: Orthohantavirus negraense
HLA-A*26:01 [26] = assay: IEDB peptide-MHC binding, purified MHC/competitive/radioactivity; filed as Kd, often an IC50 or EC50 that approximates it; ≥ and ≤ were set here for values at or beyond the usual limits of such assays; conditions: source organism: Dengue virus 1 Brazil/97-11/1997
HLA-A*01:01 [27] = assay: as above; conditions: source organism: Dengue virus 1 Brazil/97-11/1997
HLA-A*68:02 [28] = assay: as above; conditions: source organism: Dengue virus 1 Brazil/97-11/1997
[29] = source organism: Mycobacterium tuberculosis
[30] = source organism: Tai Forest ebolavirus
[31] = source organism: Tai Forest virus - Cote d'Ivoire, Cote d'Ivoire, 1994
[32] = source organism: West Nile virus
[33] = source organism: Influenza A virus (A/camel/Mongolia/1982(H1N1))
[34] = source organism: Dengue virus 3 Martinique/1243/1999
[35] = source organism: Dengue virus 2 Jamaica/1409/1983
[36] = source organism: Orthohantavirus negraense
[37] = source organism: Dengue virus 1 Brazil/97-11/1997

In the case of EKAAWGVAL, the Kd (HLA-B*27:05; [29]) is reported as ≥ 20 µM, the Kd (HLA-A*02:01 [1]; [29]) is reported as ≥ 20 µM and the Kd (HLA-A*03:01 [2]; [29]) is reported as ≥ 20 µM. The Kd (HLA-A*69:01 [3]; [29]) was ≥ 20 µM, the Kd (HLA-A*29:02 [4]; [29]) was ≥ 20 µM and the Kd (HLA-B*44:02; [29]) was ≥ 20 µM. For the same sequence, the Kd (HLA-A*01:01 [5]; [29]) was ≥ 20 µM, the Kd (HLA-B*46:01 [6]; [29]) was ≥ 20 µM and the Kd (HLA-B*39:01 [7]; [29]) was 0.052 µM. The Kd (HLA-A*31:01; [29]) was ≥ 20 µM, the Kd (HLA-B*57:01 [8]; [29]) was ≥ 20 µM and the Kd (HLA-B*18:01 [9]) was ≥ 20 µM. The Kd (HLA-B*15:01; [29]) was ≥ 20 µM and the Kd (HLA-A*11:01; [29]) was ≥ 20 µM.

Work on EKLKSLYNTV yielded a Kd (HLA-A*30:01) of 0.175 µM, a Kd (HLA-A*02:03 [10]) of 0.643 µM and a Kd (HLA-B*39:01 [11]; source organism: Human immunodeficiency virus 1) of 2.81 µM.

In the case of FAEGVIAFL, the Kd (HLA-A*26:01 [12]; [30]) is reported as ≥ 20 µM, the Kd (HLA-B*27:03; [30]) is reported as ≥ 20 µM and the Kd (HLA-B*18:01 [13]; [30]) is reported as ≥ 20 µM. For the same sequence, the Kd (HLA-B*27:05; [31]) was ≥ 20 µM, the Kd (HLA-A*03:01 [2]; [31]) was ≥ 20 µM and the Kd (HLA-B*58:01 [14]; [31]) was ≥ 20 µM. The Kd (HLA-B*44:02; [31]) was ≥ 20 µM, the Kd (HLA-A*01:01 [5]; [31]) was ≥ 20 µM and the Kd (HLA-B*46:01 [6]; [31]) was ≥ 20 µM. The Kd (HLA-B*39:01 [7]; [31]) was 0.539 µM, the Kd (HLA-B*07:02; [31]) was ≥ 20 µM and the Kd (HLA-A*31:01; [31]) was ≥ 20 µM. For the same sequence, the Kd (HLA-B*57:01 [8]; [31]) was ≥ 20 µM, the Kd (HLA-B*15:01; [31]) was ≥ 20 µM and the Kd (HLA-A*11:01; [31]) was ≥ 20 µM.

GAVFQEEQGW gave a Kd (HLA-B*58:01 [15]; source organism: Dengue virus 4 Philippines/H241/1956) of 0.0185 µM.

For GRGPIRFVL, the Kd (HLA-A*02:01 [1]; [32]) was ≥ 20 µM, the Kd (HLA-A*03:01 [2]; [32]) was ≥ 20 µM and the Kd (HLA-B*15:09; [32]) was ≥ 20 µM. The Kd (HLA-A*69:01 [3]; [32]) was ≥ 20 µM, the Kd (HLA-B*58:01 [14]; [32]) was ≥ 20 µM and the Kd (HLA-A*29:02 [4]; [32]) was ≥ 20 µM. For the same sequence, the Kd (HLA-B*44:02; [32]) was ≥ 20 µM, the Kd (HLA-A*01:01 [5]; [32]) was ≥ 20 µM and the Kd (HLA-B*46:01 [6]; [32]) was ≥ 20 µM. For the same sequence, the Kd (HLA-B*07:02; [32]) was ≥ 20 µM, the Kd (HLA-A*31:01; [32]) was ≥ 20 µM and the Kd (HLA-B*57:01 [8]; [32]) was ≥ 20 µM. For the same sequence, the Kd (HLA-B*15:01; [32]) was ≥ 20 µM and the Kd (HLA-A*11:01; [32]) was ≥ 20 µM.

For HIPEVCLKW, the Kd (HLA-B*27:05; [33]) was ≥ 20 µM, the Kd (HLA-A*02:01 [1]; [33]) was ≥ 20 µM and the Kd (HLA-A*03:01 [2]; [33]) was ≥ 20 µM. For the same sequence, the Kd (HLA-B*15:09; source organism: Influenza A virus H3N2) was ≥ 20 µM, the Kd (HLA-A*69:01 [3]; [33]) was ≥ 20 µM and the Kd (HLA-B*58:01 [14]; [33]) was 0.121 µM. The Kd (HLA-B*08:01) was ≥ 20 µM, the Kd (HLA-B*44:02; [33]) was ≥ 20 µM and the Kd (HLA-A*01:01 [5]; [33]) was ≥ 20 µM. For the same sequence, the Kd (HLA-B*46:01 [6]; [33]) was ≥ 20 µM, the Kd (HLA-B*40:01) was ≥ 20 µM and the Kd (HLA-B*07:02; [33]) was ≥ 20 µM. The Kd (HLA-A*31:01; [33]) was ≥ 20 µM and the Kd (HLA-B*15:01; [33]) was ≥ 20 µM.

Sequence IASAIVLEFF has a Kd (HLA-B*58:01 [15]; [34]) of 0.021 µM and a Kd (HLA-B*57:01 [16]; [34]) of 0.883 µM.

In the case of KLGEGFKSL, the Kd (HLA-A*02:01 [17]) is reported as 0.0151 µM, the Kd (HLA-A*26:01 [12]; source organism: Bos taurus) is reported as ≥ 20 µM and the Kd (HLA-A*24:03) is reported as ≥ 20 µM. The Kd (HLA-B*27:03; source organism: Bos taurus) was ≥ 20 µM, the Kd (HLA-A*03:01 [18]) was ≥ 20 µM and the Kd (HLA-A*69:01 [19]) was ≥ 20 µM. For the same sequence, the Kd (HLA-B*15:17; source organism: Bos taurus) was ≥ 20 µM, the Kd (HLA-A*29:02 [20]) was ≥ 20 µM and the Kd (HLA-A*68:02 [21]) was ≥ 20 µM. The Kd (HLA-B*46:01 [22]; source organism: Bos taurus) was ≥ 20 µM, the Kd (HLA-B*39:01 [11]; source organism: Bos taurus) was ≥ 20 µM and the Kd (HLA-B*57:01 [23]; source organism: Bos taurus) was ≥ 20 µM. The Kd (HLA-B*18:01 [13]; source organism: Bos taurus) was ≥ 20 µM and the Kd (HLA-B*51:01; source organism: Bos taurus) was ≥ 20 µM.

KSIEDNPEI showed a Kd (HLA-B*58:01 [15]; [35]) of 0.00548 µM.

NIYETEFFM was tested, and the Kd (HLA-B*27:03; [36]) was ≥ 20 µM, the Kd (HLA-B*15:17; [36]) was ≥ 20 µM and the Kd (HLA-B*46:01 [22]; [36]) was ≥ 20 µM. The Kd (HLA-B*39:01 [11]; [36]) was ≥ 20 µM, the Kd (HLA-B*57:01 [23]; [36]) was ≥ 20 µM and the Kd (HLA-B*18:01 [13]; [36]) was ≥ 20 µM. The Kd (HLA-B*51:01; [36]) was ≥ 20 µM, the Kd (HLA-A*26:01 [24]) was 1.11 µM and the Kd (HLA-A*03:01 [2]; [36]) was ≥ 20 µM. For the same sequence, the Kd (HLA-A*02:03 [25]) was ≥ 20 µM.

Work on PTAGVLARW yielded a Kd (HLA-B*57:01 [16]; [34]) of 0.0297 µM.

In the case of RAVHADMGYW, the Kd (HLA-B*58:01 [15]; [35]) is reported as 0.000235 µM.

STSLSMTCIA showed a Kd (HLA-B*57:01 [16]; [37]) of 2.08 µM.

With TTSGTYVSAI the Kd (HLA-A*26:01 [26]) was 17 µM, the Kd (HLA-A*01:01 [27]) was ≥ 70.4 µM and the Kd (HLA-A*68:02 [28]) was 0.0205 µM. It also gave a Kd (HLA-B*57:01 [16]; [37]) of 0.179 µM.

For YRKEQQNAV, the Kd (HLA-B*39:01 [7]; source organism: Influenza A virus (A/Belfast/53582/2004(H3N?))) was 0.62 µM.
